Assay results reported in IntAct's records for PubMed 20485264.
Values belong to the substance of their own block, whether it stands above or below them.

Tests used:
ipka_human PKIA [1] = target: ipka_human PKIA (UniProt P61925)
ipka_human PKIA [2] = target: ipka_human PKIA (UniProt P61925); remark: listed apart in the source
ipka_human PKIA [3] = target: ipka_human PKIA (UniProt P61925); remark: listed apart in the source
ipka_human PKIA [4] = target: ipka_human PKIA (UniProt P61925); remark: listed apart in the source
xpo1_yeast CRM1 = xpo1_yeast CRM1 (UniProt P30822)

- effect of a mutation on the interaction (ipka_human PKIA [2]): increasing interaction
Substance: Exportin-1 (Saccharomyces cerevisiae) (from UniProt P30822) V441A;L442A

- effect of a mutation on the interaction (ipka_human PKIA [3]): increasing interaction
Substance: Exportin-1 (Saccharomyces cerevisiae) (from UniProt P30822) V441D

- effect of a mutation on the interaction (ipka_human PKIA [4]): increasing interaction
Substance: Exportin-1 (Saccharomyces cerevisiae) (from UniProt P30822) V443D

Further lines, the substance ahead of its results:

Substance: Exportin-1 (Saccharomyces cerevisiae) (from UniProt P30822) P754D
- effect of a mutation on the interaction (ipka_human PKIA [1]): increasing interaction

Substance: cAMP-dependent protein kinase inhibitor alpha (Homo sapiens) (from UniProt P61925) I47A
- effect of a mutation on the interaction (xpo1_yeast CRM1): disrupting interaction
